Measured values: article PMC10364585

Target: recombinant spider silk protein eADF4(C16)
Assay: seeded turbidity kinetics at 340 nm; monomeric eADF4(C16) 10-40 uM with 0.5% or 30% (w/w) preformed seeds (sonicated mature fibrils of the same protein), 150 mM KPi pH 8.0, quiescent, 20-40 C; global fit with AmyloFit (secondary nucleation model)

rate constant for primary nucleation kn: 1e-09 M⁻¹ s⁻¹
Substance: recombinant spider silk protein eADF4(C16)
